Measured values as given in patent US20230250154A1 (CYTONICS, published 2023).

Key:
Experiment in all cases: cell-based or functional assay
MMP13 = MMP13 (human, UniProt P45452 104-471, limits assumed)
ADAMTS5 = target: T1, ADAMTS5 (human, UniProt Q9UNA0 262-622, limits assumed)
T1 sequence (looked up): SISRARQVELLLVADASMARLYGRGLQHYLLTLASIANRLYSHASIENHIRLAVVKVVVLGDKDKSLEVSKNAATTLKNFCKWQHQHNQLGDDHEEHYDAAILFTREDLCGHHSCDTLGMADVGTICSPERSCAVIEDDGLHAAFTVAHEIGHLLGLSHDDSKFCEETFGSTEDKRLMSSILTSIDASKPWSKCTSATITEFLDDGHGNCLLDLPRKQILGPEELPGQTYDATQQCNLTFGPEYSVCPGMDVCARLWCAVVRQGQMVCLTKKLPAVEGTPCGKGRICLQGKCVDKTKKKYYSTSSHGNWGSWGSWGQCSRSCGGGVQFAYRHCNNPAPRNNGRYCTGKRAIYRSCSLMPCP

ADAMTS4 = target: T2, ADAMTS4 (human, UniProt O75173 213-685, limits assumed)
T2 sequence (looked up): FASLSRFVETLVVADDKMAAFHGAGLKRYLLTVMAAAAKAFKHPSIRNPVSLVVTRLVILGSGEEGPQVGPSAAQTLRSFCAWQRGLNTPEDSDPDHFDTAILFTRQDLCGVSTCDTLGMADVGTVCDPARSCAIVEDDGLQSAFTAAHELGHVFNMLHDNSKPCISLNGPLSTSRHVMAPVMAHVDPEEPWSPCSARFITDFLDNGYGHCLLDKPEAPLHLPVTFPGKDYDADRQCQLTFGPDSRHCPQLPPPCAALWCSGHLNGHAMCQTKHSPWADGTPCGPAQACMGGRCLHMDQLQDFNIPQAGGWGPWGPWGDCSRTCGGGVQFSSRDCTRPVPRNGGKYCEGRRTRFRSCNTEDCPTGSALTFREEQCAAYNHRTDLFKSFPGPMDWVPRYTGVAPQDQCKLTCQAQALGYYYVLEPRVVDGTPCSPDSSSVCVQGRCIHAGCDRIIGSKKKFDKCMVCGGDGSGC

Binder	Protease Inhibition (% of WT) (MMP13)	Protease Inhibition (% of WT) (ADAMTS5)	Protease Inhibition (% of WT) (ADAMTS4)
Variant A2M, bait region SEQ ID NO 98 (other) SVSGKPQYMVLVPSLLHTETTEKGCVLLSYLNETVTVSASLESVRGNRSLFTDLEAENDVLHCVAFAVPKSSSNEEVMFLTVQVKGPTQEFKKRTTVMVKNEDSLVFVQTDKSIYKPGQTVKFRVVSMDENFHPLNELIPLVYIQDPKGNRIAQWQSFQLEGGLKQFSFPLSSEPFQGSYKVVVQKKSGGRTEHPFTVEEFVLPKFEVQVTVPKIITILEEEMNVSVCGLYTYGKPVPGHVTVSICRKYSDASDCHGEDSQAFCEKFSGQLNSHGCFYQQVKTKVFQLKRKEYEMKLHTEAQIQEEGTVVELTGRQSSEITRTITKLSFVKVDSHFRQGIPFFGQVRLVDGKGVPIPNKVIFIRGNEANYYSNATTDEHGLVQFSINTTNVMGTSLTVRVNYKDRSPCYGYQWVSEEHEEAHHTAYLVFSPSKSFVHLEPMSHELPCGHTQTVQAHYILNGGTLLGLKKLSFYYLIMAKGGIVRTGTHGLLVKQEDMKGHFSISIPVKSDIAPVARLLIYAVLPTGDVIGDSAKYDVENCLANKVDLSFSPSQSLPASHAHLRVTAAPQSVCALRAVDQSVLLMKPDAELSASSVYNLLPEKDLTGFPGPLNDQDDEDCINRHNVYINGITYTPVSSTNEKDMYSFLEDMGLKAFTNSKIRKPKMCPQLEQYEMHGPEGLRVGGARGLEGFYESDVMGRGHARLVHVEEPHTKLRKYFPETWIWDLVVVNSAGVAEVGVTVPDTITEWKAGAFCLSEDAGLGISSTASLRAFQPFFVELTMPYSVIRGEAFTLKATVLNYLPKCIRVSVQLEASPAFLAVPVEKEQAPHCICANGRQTVSWAVTPKSLGNVNFTVSAEALESQELCGTEVPSVPEHGRKDTVIKPLLVEPEGLEKETTFNSLLCPSGGEVSEELSLKLPPNVVEESARASVSVLGDILGSAMQNTQNLLQMPYGCGEQNMVLFAPNIYVLDYLNETQQLTPEIKSKAIGYLNTGYQRQLNYKHYDGSYSTFGERYGRNQGNTWLTAFVLKTFAQARAYIFIDEAHITQALIWLSQRQKDNGCFRSSGSLLNNAIKGGVEDEVTLSAYITIALLEIPLTVTHPVVRNALFCLESAWKTAQEGDHGSHVYTKALLAYAFALAGNQDKRKEVLKSLNEEAVKKDNSVHWERPQKPKAPVGHFYEPQAPSAEVEMTSYVLLAYLTAQPAPTSEDLTSATNIVKWITKQQNAQGGFSSTQDTVVALHALSKYGAATFTRTGKAAQVTIQSSGTFSSKFQVDNNNRLLLQQVSLPELPGEYSMKVTGEGCVYLQTSLKYNILPEKEEFPFALGVQTLPQTCDEPKAHTSFQISLSVSYTGSRSASNMAIVDVKMVSGFIPLKPTVKMLERSNHVSRTEVSSNHVLIYLDKVSNQTLSLFFTVLQDVPVRDLKPAIVKVYDYYETDEFAIAEYNAPCSKDLGNADYKDDDDKGASHHHHHH	148 % of WT	82 % of WT	124 % of WT
Variant A2M, bait region SEQ ID NO 97 (other) SVSGKPQYMVLVPSLLHTETTEKGCVLLSYLNETVTVSASLESVRGNRSLFTDLEAENDVLHCVAFAVPKSSSNEEVMFLTVQVKGPTQEFKKRTTVMVKNEDSLVFVQTDKSIYKPGQTVKFRVVSMDENFHPLNELIPLVYIQDPKGNRIAQWQSFQLEGGLKQFSFPLSSEPFQGSYKVVVQKKSGGRTEHPFTVEEFVLPKFEVQVTVPKIITILEEEMNVSVCGLYTYGKPVPGHVTVSICRKYSDASDCHGEDSQAFCEKFSGQLNSHGCFYQQVKTKVFQLKRKEYEMKLHTEAQIQEEGTVVELTGRQSSEITRTITKLSFVKVDSHFRQGIPFFGQVRLVDGKGVPIPNKVIFIRGNEANYYSNATTDEHGLVQFSINTTNVMGTSLTVRVNYKDRSPCYGYQWVSEEHEEAHHTAYLVFSPSKSFVHLEPMSHELPCGHTQTVQAHYILNGGTLLGLKKLSFYYLIMAKGGIVRTGTHGLLVKQEDMKGHFSISIPVKSDIAPVARLLIYAVLPTGDVIGDSAKYDVENCLANKVDLSFSPSQSLPASHAHLRVTAAPQSVCALRAVDQSVLLMKPDAELSASSVYNLLPEKDLTGFPGPLNDQDDEDCINRHNVYINGITYTPVSSTNEKDMYSFLEDMGLKAFTNSKIRKPKMCPQLEQYEMHGPEGLRVGGEEGVEEGFYESDVMGRGHARLVHVEEPHTKLLRKYFPETWIWDLVVVNSAGVAEVGVTVPDTITEWKAGAFCLSEDAGLGISSTASLRAFQPFFVELTMPYSVIRGEAFTLKATVLNYLPKCIRVSVQLEASPAFLAVPVEKEQAPHCICANGRQTVSWAVTPKSLGNVNFTVSAEALESQELCGTEVPSVPEHGRKDTVIKPLLVEPEGLEKETTFNSLLCPSGGEVSEELSLKLPPNVVEESARASVSVLGDILGSAMQNTQNLLQMPYGCGEQNMVLFAPNIYVLDYLNETQQLTPEIKSKAIGYLNTGYQRQLNYKHYDGSYSTFGERYGRNQGNTWLTAFVLKTFAQARAYIFIDEAHITQALIWLSQRQKDNGCFRSSGSLLNNAIKGGVEDEVTLSAYITIALLEIPLTVTHPVVRNALFCLESAWKTAQEGDHGSHVYTKALLAYAFALAGNQDKRKEVLKSLNEEAVKKDNSVHWERPQKPKAPVGHFYEPQAPSAEVEMTSYVLLAYLTAQPAPTSEDLTSATNIVKWITKQQNAQGGFSSTQDTVVALHALSKYGAATFTRTGKAAQVTIQSSGTFSSKFQVDNNNRLLLQQVSLPELPGEYSMKVTGEGCVYLQTSLKYNILPEKEEFPFALGVQTLPQTCDEPKAHTSFQISLSVSYTGSRSASNMAIVDVKMVSGFIPLKPTVKMLERSNHVSRTEVSSNHVLIYLDKVSNQTLSLFFTVLQDVPVRDLKPAIVKVYDYYETDEFAIAEYNAPCSKDLGNADYKDDDDKGASHHHHHH	116 % of WT	128 % of WT	131 % of WT
Variant A2M, bait region SEQ ID NO 99 (other) SVSGKPQYMVLVPSLLHTETTEKGCVLLSYLNETVTVSASLESVRGNRSLFTDLEAENDVLHCVAFAVPKSSSNEEVMFLTVQVKGPTQEFKKRTTVMVKNEDSLVFVQTDKSIYKPGQTVKFRVVSMDENFHPLNELIPLVYIQDPKGNRIAQWQSFQLEGGLKQFSFPLSSEPFQGSYKVVVQKKSGGRTEHPFTVEEFVLPKFEVQVTVPKIITILEEEMNVSVCGLYTYGKPVPGHVTVSICRKYSDASDCHGEDSQAFCEKFSGQLNSHGCFYQQVKTKVFQLKRKEYEMKLHTEAQIQEEGTVVELTGRQSSEITRTITKLSFVKVDSHFRQGIPFFGQVRLVDGKGVPIPNKVIFIRGNEANYYSNATTDEHGLVQFSINTTNVMGTSLTVRVNYKDRSPCYGYQWVSEEHEEAHHTAYLVFSPSKSFVHLEPMSHELPCGHTQTVQAHYILNGGTLLGLKKLSFYYLIMAKGGIVRTGTHGLLVKQEDMKGHFSISIPVKSDIAPVARLLIYAVLPTGDVIGDSAKYDVENCLANKVDLSFSPSQSLPASHAHLRVTAAPQSVCALRAVDQSVLLMKPDAELSASSVYNLLPEKDLTGFPGPLNDQDDEDCINRHNVYINGITYTPVSSTNEKDMYSFLEDMGLKAFTNSKIRKPKMCPQLEQYEMHGPEGLRVGGPPGLAPGFYESDVMGRGHARLVHVEEPHTKLLRKYFPETWIWDLVVVNSAGVAEVGVTVPDTITEWKAGAFCLSEDAGLGISSTASLRAFQPFFVELTMPYSVIRGEAFTLKATVLNYLPKCIRVSVQLEASPAFLAVPVEKEQAPHCICANGRQTVSWAVTPKSLGNVNFTVSAEALESQELCGTEVPSVPEHGRKDTVIKPLLVEPEGLEKETTFNSLLCPSGGEVSEELSLKLPPNVVEESARASVSVLGDILGSAMQNTQNLLQMPYGCGEQNMVLFAPNIYVLDYLNETQQLTPEIKSKAIGYLNTGYQRQLNYKHYDGSYSTFGERYGRNQGNTWLTAFVLKTFAQARAYIFIDEAHITQALIWLSQRQKDNGCFRSSGSLLNNAIKGGVEDEVTLSAYITIALLEIPLTVTHPVVRNALFCLESAWKTAQEGDHGSHVYTKALLAYAFALAGNQDKRKEVLKSLNEEAVKKDNSVHWERPQKPKAPVGHFYEPQAPSAEVEMTSYVLLAYLTAQPAPTSEDLTSATNIVKWITKQQNAQGGFSSTQDTVVALHALSKYGAATFTRTGKAAQVTIQSSGTFSSKFQVDNNNRLLLQQVSLPELPGEYSMKVTGEGCVYLQTSLKYNILPEKEEFPFALGVQTLPQTCDEPKAHTSFQISLSVSYTGSRSASNMAIVDVKMVSGFIPLKPTVKMLERSNHVSRTEVSSNHVLIYLDKVSNQTLSLFFTVLQDVPVRDLKPAIVKVYDYYETDEFAIAEYNAPCSKDLGNADYKDDDDKGASHHHHHH	64 % of WT	87 % of WT	63 % of WT
